{"source": "paper PMC9106695", "about": "“The use of high-affinity polyhistidine binders as masking probes for the selection of an NDM-1 specific aptamer”", "key": {"[1]": {"test_system": "hexa-HIS peptide (synthetic)", "assay": "MST", "conditions": "20 mM Tris-HCl pH 7.4, 140 mM NaCl, 5 mM MgCl2, 1 mM CaCl2, 1 mM KCl; FLAA/MST with 0.1% BSA and 0.05% Tween 20 (FLAA at RT); SPR without BSA, 0.005% Tween 20 …"}, "[2]": {"molecular_target": "T1, HIS-NDM-1 (New Delhi metallo-beta-lactamase 1) (E. coli, UniProt C7C422 29-270)", "T1 sequence (C7C422 29-270)": "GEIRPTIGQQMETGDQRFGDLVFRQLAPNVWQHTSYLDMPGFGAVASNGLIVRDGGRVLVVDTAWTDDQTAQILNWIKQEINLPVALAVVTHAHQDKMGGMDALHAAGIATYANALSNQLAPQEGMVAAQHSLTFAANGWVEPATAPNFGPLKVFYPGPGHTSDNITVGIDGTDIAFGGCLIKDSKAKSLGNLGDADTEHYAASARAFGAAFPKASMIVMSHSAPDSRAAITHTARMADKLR", "assay": "FLAA; signal exceeds initial library; 20 mM Tris-HCl pH 7.4, 140 mM NaCl, 5 mM MgCl2, 1 mM CaCl2, 1 mM KCl; FLAA/MST with 0.1% BSA and 0.05% Tween 20 (FLAA at RT); SPR without BSA, 0.005% Tween 20", "conditions": "protein: commercial; tags: N-terminal His6"}, "[3]": {"molecular_target": "CFHR1-HIS (Complement factor H-related protein 1) (UniProt Q03591 19-330)", "sequence (Q03591 19-330)": "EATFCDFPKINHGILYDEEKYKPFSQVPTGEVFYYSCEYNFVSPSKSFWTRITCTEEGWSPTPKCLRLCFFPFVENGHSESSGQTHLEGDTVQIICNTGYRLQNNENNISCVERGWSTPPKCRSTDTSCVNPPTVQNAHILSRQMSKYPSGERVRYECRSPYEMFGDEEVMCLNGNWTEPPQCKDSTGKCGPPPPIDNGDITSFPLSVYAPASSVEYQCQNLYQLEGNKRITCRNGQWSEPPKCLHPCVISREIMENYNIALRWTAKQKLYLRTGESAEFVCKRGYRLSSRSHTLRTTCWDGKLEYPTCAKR", "assay": "SPR; aptamer immobilized; 20 mM Tris-HCl pH 7.4, 140 mM NaCl, 5 mM MgCl2, 1 mM CaCl2, 1 mM KCl; FLAA/MST with 0.1% BSA and 0.05% Tween 20 (FLAA at RT); SPR without BSA, 0.005% Tween 20", "conditions": "protein: commercial, tags: C-terminal HIS"}, "[4]": {"molecular_target": "T2, mPD1-HIS (mouse Programmed cell Death protein 1) (mouse, UniProt Q02242 25-169)", "T2 sequence (Q02242 25-169)": "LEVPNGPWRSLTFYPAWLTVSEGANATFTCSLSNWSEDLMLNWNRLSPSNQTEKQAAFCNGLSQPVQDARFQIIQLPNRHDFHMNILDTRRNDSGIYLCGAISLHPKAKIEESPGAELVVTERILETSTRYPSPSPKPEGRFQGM", "assay": "SPR; aptamer immobilized; 20 mM Tris-HCl pH 7.4, 140 mM NaCl, 5 mM MgCl2, 1 mM CaCl2, 1 mM KCl; FLAA/MST with 0.1% BSA and 0.05% Tween 20 (FLAA at RT); SPR without BSA, 0.005% Tween 20", "conditions": "protein: commercial, tags: C-terminal HIS"}, "[5]": {"molecular_target": "T1, HIS-NDM-1 (New Delhi …)", "assay": "SPR; aptamer immobilized; text gives upper limit 4.43E-09; 20 mM Tris-HCl pH 7.4, 140 mM NaCl, 5 mM MgCl2, 1 mM CaCl2, 1 mM KCl; FLAA/MST with 0.1% BSA and 0.05% Tween 20 (FLAA at RT); SPR without BSA, 0.005% Tween 20", "conditions": "protein: commercial; tags: N-terminal His6; label: 5'-BiotinTEG (SPR kinetics); 5'-Cy5 (MST); none (screens)"}, "[6]": {"molecular_target": "T2, mPD1-HIS (mouse Programmed cell Death …)", "assay": "SPR; protein immobilized, 1 uM aptamer; 20 mM Tris-HCl pH 7.4, 140 mM NaCl, 5 mM MgCl2, 1 mM CaCl2, 1 mM KCl; FLAA/MST with 0.1% BSA and 0.05% Tween 20 (FLAA at RT); SPR without BSA, 0.005% Tween 20", "conditions": "protein: commercial; tags: C-terminal HIS"}, "[7]": {"molecular_target": "T1, HIS-NDM-1 (New Delhi …)", "assay": "FLAA; signal exceeds initial library; not seen in SPR; 20 mM Tris-HCl pH 7.4, 140 mM NaCl, 5 mM MgCl2, 1 mM CaCl2, 1 mM KCl; FLAA/MST with 0.1% BSA and 0.05% Tween 20 (FLAA at RT); SPR without BSA, 0.005% Tween 20", "conditions": "protein: commercial; tags: N-terminal His6"}, "[8]": {"molecular_target": "OXA-23 beta-lactamase (A. baumannii) (Acinetobacter baumannii, UniProt Q9L4P2 18-273)", "sequence (Q9L4P2 18-273)": "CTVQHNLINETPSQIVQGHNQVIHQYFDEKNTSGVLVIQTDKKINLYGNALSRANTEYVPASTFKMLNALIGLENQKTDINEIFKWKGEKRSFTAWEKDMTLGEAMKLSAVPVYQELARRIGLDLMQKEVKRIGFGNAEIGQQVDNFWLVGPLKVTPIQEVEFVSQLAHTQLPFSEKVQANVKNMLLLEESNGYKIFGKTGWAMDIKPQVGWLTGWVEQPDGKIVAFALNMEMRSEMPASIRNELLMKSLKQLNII", "assay": "MST; 20 mM Tris pH 7.4, 140 mM NaCl, 5 mM MgCl2, 1 mM CaCl2, 1 mM KCl, 0.1% BSA, 0.05% Tween 20", "conditions": "tags: N-His6; label: 5'-Cy5"}, "[9]": {"molecular_target": "T1, HIS-NDM-1 (New Delhi …)", "assay": "MST; 20 mM Tris-HCl pH 7.4, 140 mM NaCl, 5 mM MgCl2, 1 mM CaCl2, 1 mM KCl; FLAA/MST with 0.1% BSA and 0.05% Tween 20 (FLAA at RT); SPR without BSA, 0.005% Tween 20", "conditions": "protein: commercial, tags: N-terminal His6"}, "[10]": {"molecular_target": "T1, HIS-NDM-1 (New Delhi …)", "assay": "SPR; aptamer immobilized; 20 mM Tris-HCl pH 7.4, 140 mM NaCl, 5 mM MgCl2, 1 mM CaCl2, 1 mM KCl; FLAA/MST with 0.1% BSA and 0.05% Tween 20 (FLAA at RT); SPR without BSA, 0.005% Tween 20", "conditions": "protein: commercial, tags: N-terminal His6"}, "[11]": {"conditions": "label: 5'-BiotinTEG (SPR kinetics), 5'-Cy5 (MST), none (screens)"}, "[12]": {"conditions": "label: 5'-BiotinTEG (SPR), 5'-Cy5 (MST), none (FLAA)"}}}
{"molecule": "GTATCTGGTGGTCTATGGCGTCATAGGTACCATGGGGGACTGCTCGGGATTGCGGATTCATGGCATAGACGACGAAGAAC [NDM1-H14-01]", "values": [{"measurement": "Kd", "setting": "[1]", "result": 28.1, "unit": "nM"}]}
{"molecule": "NDM1-H14-02 (ssDNA) DNA: GTATCTGGTGGTCTATGGCCAGTATGGCTGTTCAAGTCTTCAGAGGGTCTGCTCGGGATTGCGCATAGACGACGAAGAAC", "values": [{"measurement": "binding result", "setting": "[2]", "result": "binds"}]}
{"molecule": "NDM1-H14-01 (ssDNA) DNA: GTATCTGGTGGTCTATGGCGTCATAGGTACCATGGGGGACTGCTCGGGATTGCGGATTCATGGCATAGACGACGAAGAAC", "values": [{"measurement": "Kd", "setting": "[3]; [11]", "result": 0.0449, "unit": "nM"}, {"measurement": "Kd", "setting": "[4]; [11]", "result": 0.0986, "unit": "nM"}, {"measurement": "Kd", "setting": "[5]", "result": 4.34, "unit": "nM"}]}
{"molecule": "NDM1-H14-25 (ssDNA) DNA: GTATCTGGTGGTCTATGGCAAACGTTCTGAGTTAGGCTTATTTTTCTCTCTTCCCTTCGCCGCATAGACGACGAAGAAC", "values": [{"measurement": "binding result", "setting": "[6]", "result": "binds"}, {"measurement": "binding result", "setting": "[7]", "result": "binds"}]}
{"molecule": "NDM1-H14.2_43 (ssDNA) DNA: GTATCTGGTGGTCTATGGCCGCTATCCGCAATCTGTCTCTTTTCTTTATTCTTTTACTCACCGCATAGACGACGAAGAAC", "values": [{"measurement": "binding result", "setting": "[8]", "result": "no binding"}, {"measurement": "Kd", "setting": "[9]; [12]", "result": 2820, "unit": "nM"}, {"measurement": "Kd", "setting": "[10]; [12]", "result": 745, "unit": "nM"}]}
{"molecule": "CGTCATAGGTACCATGGGGGACTGCTCGGGATTGCGGATTCATG (ssDNA)", "note": "[NDM1-H14-01-FR]", "values": [{"measurement": "Kd", "setting": "[10]; label: 5'-BiotinTEG", "result": 5.91, "unit": "nM"}, {"measurement": "Kd", "setting": "[3]; label: 5'-BiotinTEG", "result": 0.0286, "unit": "nM"}, {"measurement": "Kd", "setting": "[4]; label: 5'-BiotinTEG", "result": 0.125, "unit": "nM"}]}
{"molecule": "Con1 (ssDNA) DNA: GGGAATTCGAGCTCGGTACCGGCTGCTTTGCTGCAGATTTGTGGGTGGGTGGGTGGTGATCTGCAGGCATGCAAGCTTGG", "values": [{"measurement": "binding result", "setting": "[9]; label: 5'-Cy5", "result": "no binding"}]}
